From PMC10030117 (eLife, 2023)
Residue numbers refer to the chain shown, from its start.

B1: Antibody 3A3, full-length (mouse variable region-human IgG1 constant region chimera) (antibody, V domains shown)
VH: QVQLQQSGAELLKPGASVKLSCTASGFNIKDTYIHWLKQRPEQGLEWIGRIGPAIGNTIYAPKFQGKATITTDTSSNTAYLQLSSLTSEDTAVYYCARYYGSSYYYFDYWGQGTTLTVSS
VL: DIVMTQSAPSVPVTPGESVSISCRSSKSLLHSNGNTYLYWFLQRPGQSPQLLIYRMSNLASGVPDRFSGSGSGTAFTLRISRVEAEDVGVYYCMQYLEYPLTFGAGTKLELK
B2: Antibody RAY53, full-length human IgG1 (antibody, V domains shown)
VH: QVQLVQSGAVVLKPGASVKLSCKASGFNIKNTYIHWLKQAPGQRLEWIGRIGPAIGNTIYAPKFQGKATITTDTSASTAYLELSSLRSEDTAVYYCARYYGSSYYYLDYWGQGTTVTVSS
VL: B1 VL with A8P, P9L, S18P, R44K, Y54A, N58T, R79K, L111I

Molecular target: T1, HKU1 spike (2P-stabilized ectodomain with foldon) (HCoV-HKU1, isolate N5 (as in PDB 5I08), UniProt Q0ZME7, stabilised)
T1 construct: source: ExpiCHO or Freestyle 293F cells, purified
Assay: ELISA
Conditions: both partners purified

| Binder | binding result |
| --- | --- |
| B1 | binds |
| B2 | binds |
